How the values were obtained:
[1] = tested on: atopic dermatitis patients; experiment: Atopic dermatitis longitudinal PK-PD model of lebrikizumab (EASI score) and simulated dosing regimens; parameters: species or system human; details: PK-PD model fitted to EASI scores up to 12 weeks from Clinical Study I
Text: In FIG. 5, R(t) is the EASI score; Kin0 is the baseline disease progression rate constant; kin is the disease progression rate constant with lebrikizumab and including the placebo/TCS effect; Edrug is the lebrikizumab drug effect on disease progression inhibition; Econ is the placebo/TCS effect (constant overtime); Emax is the maximum lebrikizumab drug effect on disease progression inhibition; EC50 is the lebrikizumab concentration that leads to 50% of Emax; kout is the tissue repair rate constant; R(t=0) is the baseline EASI score; IIV is the inter-individual variability; ωkout is the inter-individual variability for kout; ωEcon is the inter-individual variability for Econ; ρKoutXEcon is the correlation between kout and Econ; and σ is the residual error.
The model was used to simulate the predicted efficacy, e.g., EASI-75 score, of various alternative dosing regimens, for example, including but not limited to, various loading doses followed subsequently by various maintenance doses, e.g., flat doses of lebrikizumab administered at regular time intervals, or various lower flat doses or higher flat doses, or increased treatment intervals with lebrikizumab.
The model development began with raw pharmacokinetic and efficacy data that had been collected during the conduct of the Phase II Clinical Study I described above. […]

[2] = tested on: patients with persistent moderate to severe atopic dermatitis inadequately controlled by TCS; experiment: Clinical Study I: safety, Weeks 0 to 20; format: in vivo, human
Text: Safety Follow-Up Period. All patients who completed study treatment during the placebo-controlled treatment period (Weeks 1-12) were followed for safety for an additional 8 weeks (Weeks 13-20). During this safety follow-up period, patients were no longer required to apply the topical treatment regimen as specified during the run-in and treatment periods. Instead, triamcinolone acetonide 0.1% cream and/or hydrocortisone 2.5% cream could be applied as determined by the patient and the study investigator. At each study visit the patient was required to bring their TCS containers to the study site to be weighed. Patients were encouraged to continue applying emollients at least once daily to xerotic skin. An escalation in therapy for AD was allowed at any during the study, if, in the opinion of the investigator, it was clinically indicated.
Safety Outcome Measures. The safety outcome measures for this study were as follows: (i) frequency and severity of treatment-emergent adverse events; (ii) incidence of human anti-therapeutic antibodies (ATA) at baseline and during the study; (iii) frequency and severity of skin and other organ system infections throughout the study; the clinical definition of skin infection was as follows: the diagnosis of infection was based on the Investigator's clinical assessment including but not limited to the presence of honey-colored crusting, serous discharge, pustules, or pain at the site of rash and that may be associated with systemic features, including fever or a flare in AD disease (defined above); and (iv) incidence of disease rebound following discontinuation of study drug as assessed by the investigator; the clinical definition of disease rebound was: a significant worsening of disease severity after cessation of therapy to a severity level that is greater than prior to commencing therapy (Hijnen et al., J Eur Acad Dermatol Venereol 2007; 21(1) 85-9).

[3] = 125 mg Q4W + TCS (n = 50), Weeks 0 to 20
[4] = 125 mg SD + TCS (n = 54), Weeks 0 to 20
[5] = 250 mg SD + TCS (n = 52), Weeks 0 to 20
[6] = all lebrikizumab groups (n = 156), Weeks 0 to 20
[7] = lebrikizumab-treated patients, all doses

In the case of “lebrikizumab: monoclonal humanized anti-IL-13 IgG4 antibody; heavy chain SEQ ID NO: 11, light chain SEQ ID NO: 12; formulated at 125 mg/mL in prefilled syringe”, the “EC50 (lebrikizumab concentration that leads to 50% of Emax), estimate” value [1] is reported as 8.08 µg/mL, the “Emax (maximum lebrikizumab drug effect on disease progression inhibition), estimate” value [1] is reported as 0.729 and the “AE leading to withdrawal from study drug, %” value [2, 3] is reported as “(4) %”. For the same substance, the “Conjunctivitis allergic, %” value [2, 3] was “(4.0) %”, the “Injection site reactions, %” value [2, 3] was “(4) %” and the “Patients with at least one AE, %” value [2, 3] was “(54) %”. For the same substance, the “Patients with at least one serious AE, %” value [2, 3] was “(4) %”, the “SAE leading to withdrawal from study drug (Myopathy), %” value [2, 3] was “(2) %” and the “AE leading to withdrawal from study drug, %” value [2, 4] was “(2) %”. For the same substance, the “Conjunctivitis allergic, %” value [2, 4] was “(7.4) %”, the “Patients with at least one AE, %” value [2, 4] was “(70) %” and the “Patients with at least one serious AE, %” value [2, 4] was “(6) %”. For the same substance, the “AE leading to dose modification/interruption, %” value [2, 5] was “(2) %”, the “Conjunctival hyperaemia, %” value [2, 5] was “(1.9) %” and the “Conjunctivitis allergic, %” value [2, 5] was “(3.8) %”. The “Patients with at least one AE, %” value [2, 5] was “(75) %”, the “Conjunctival hyperaemia, %” value [2, 6] was “(0.6) %” and the “Conjunctivitis allergic, %” value [2, 6] was “(5.1) %”. For the same substance, the “Patients with at least one serious AE, %” value [2, 6] was “(3) %”, the “SAE leading to withdrawal from study drug (Myopathy), %” value [2, 6] was “(1) %” and the “Conjunctival infections, irritations and inflammations: patients with at least one AE, %” value ([2]; human, in vivo) was “(5.8) %”. For the same substance, the “Conjunctival infections, irritations and inflammations: total number of events” value ([2]; human, in vivo) was 10, the “Herpes infections: total number of infections related to study drug (investigator-assessed)” value ([2]; human, in vivo) was 0 and the “Infections, %” value ([2]; human, in vivo) was “(36) %”. For the same substance, the “maximum eosinophil count in the five patients with eosinophil-associated AEs” value ([2]; human, in vivo) was 0.91-3.2 ×10^9/L, the “Eosinophil-associated AEs, % of patients” value [2, 7] was 3.2% and the “Eosinophil-associated AEs, number of patients” value [2, 7] was “five”. The “patients with a conjunctivitis AE, %” value ([2]; pooled lebrikizumab group) was 9.6% and the “deaths, events of anaphylaxis, malignancy, or protocol-defined parasitic or targeted intracellular infections of interest” value ([2]; whole study) was “no deaths”.
